Assay results published in patent US20170298106A1 (ZYNGENIA, published 2017).
Where no end group is shown, it is not given here. MBP = maltose binding protein (MBP), fused to the peptide

T1: angiopoietin-2 (Ang2) (human, UniProt O15123 68-496, limits assumed)
T1 construct: Plain and biotinylated Ang2 are kept as one molecule; also called rhAng2; recombinant Ang2
T1 sequence (looked up): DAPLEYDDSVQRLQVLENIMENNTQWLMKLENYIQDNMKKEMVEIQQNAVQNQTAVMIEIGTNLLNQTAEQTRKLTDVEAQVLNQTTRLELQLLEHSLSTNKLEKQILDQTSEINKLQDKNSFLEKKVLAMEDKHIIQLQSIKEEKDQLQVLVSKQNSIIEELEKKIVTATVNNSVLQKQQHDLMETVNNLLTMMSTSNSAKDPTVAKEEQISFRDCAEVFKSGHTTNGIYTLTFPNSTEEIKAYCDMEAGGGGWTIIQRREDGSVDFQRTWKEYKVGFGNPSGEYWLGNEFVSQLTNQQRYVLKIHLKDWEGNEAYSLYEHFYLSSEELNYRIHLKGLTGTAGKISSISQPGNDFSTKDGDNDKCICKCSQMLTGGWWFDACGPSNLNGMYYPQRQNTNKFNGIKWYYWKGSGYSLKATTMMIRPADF

B1: Her-1L-RP (bispecific antibody, not shown: a dimerising Fc or GST)
light (part 1 of 2): not shown
light (part 2 of 2): SSGGGGSGGGGGGSSRSSSFYSCLESLVNGPAEKSRGQWDGCRKK
VH: not shown
notes: Her = HERCEPTIN
B2: Her-sL-RGD4C (bispecific antibody, not shown: a dimerising Fc or GST)
light (part 1 of 2): not shown
light (part 2 of 2): GGGSCDCRGDCFC
VH: not shown
notes: Her = HERCEPTIN
B3: AVA-lm32(H) (bispecific antibody, not shown: a dimerising Fc or GST)
heavy (part 1 of 2): EVQLVESGGGLVQPGGSLRLSCAASGYTFTNYGMNWVRQAPGKGLEWVGWINTYTGEPTYAADFKRRFTFSLDTSKSTAYLQMNSLRAEDTAVYYCAKYPHYYGSSHWYFDVWGQGTLVTVSS
heavy (part 2 of 2): MGAQTNFMPMDNDELLLYEQFILQQGLE
VL: DIQMTQSPSSLSASVGDRVTITCSASQDISNYLNWYQQKPGKAPKVLIYFTSSLHSGVPSRFSGSGSGTDFTLTISSLQPEDFATYYCQQYSTVPWTFGQGTKVEIKR
notes: also called AVASTIN with the lm32 MRD fused to the heavy chain
B4: HER-lm32(H) (bispecific antibody, not shown: a dimerising Fc or GST)
heavy (part 1 of 2): not shown
heavy (part 2 of 2): KSLSLSPGKGGGSMGAQTNFMPMDNDELLLYEQFILQQGLE
VL: not shown
notes: also called HERCEPTIN-lm32 fusion; HERCEPTIN lm-32

target: insulin receptor (UniProt P06213-2 28-944, limits assumed); assay: not described
Sequence (P06213 other isoform, or with tags, fused parts or gaps limits assumed): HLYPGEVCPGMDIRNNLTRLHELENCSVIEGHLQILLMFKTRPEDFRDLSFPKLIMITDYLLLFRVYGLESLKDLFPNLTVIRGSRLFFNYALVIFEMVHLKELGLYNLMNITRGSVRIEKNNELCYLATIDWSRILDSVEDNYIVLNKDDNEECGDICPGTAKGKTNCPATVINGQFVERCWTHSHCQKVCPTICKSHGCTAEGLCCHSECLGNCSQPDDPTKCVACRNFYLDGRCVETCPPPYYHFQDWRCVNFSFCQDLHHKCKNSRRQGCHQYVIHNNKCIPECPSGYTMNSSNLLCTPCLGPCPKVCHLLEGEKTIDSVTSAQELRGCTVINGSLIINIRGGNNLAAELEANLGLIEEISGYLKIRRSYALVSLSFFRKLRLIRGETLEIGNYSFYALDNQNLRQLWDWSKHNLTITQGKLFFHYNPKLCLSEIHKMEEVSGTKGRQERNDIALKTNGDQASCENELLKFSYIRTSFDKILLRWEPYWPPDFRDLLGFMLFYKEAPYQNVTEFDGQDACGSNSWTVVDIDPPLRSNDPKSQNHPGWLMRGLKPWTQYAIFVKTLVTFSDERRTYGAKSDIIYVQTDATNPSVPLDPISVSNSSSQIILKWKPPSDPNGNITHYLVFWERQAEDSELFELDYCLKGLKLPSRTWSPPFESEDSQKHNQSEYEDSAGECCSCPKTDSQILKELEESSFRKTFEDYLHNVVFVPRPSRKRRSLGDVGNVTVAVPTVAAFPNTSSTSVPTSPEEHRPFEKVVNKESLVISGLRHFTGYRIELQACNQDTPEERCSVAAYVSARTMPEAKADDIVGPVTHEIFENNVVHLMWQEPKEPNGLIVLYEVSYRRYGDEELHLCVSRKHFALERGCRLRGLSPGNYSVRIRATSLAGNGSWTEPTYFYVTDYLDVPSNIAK

binding result	Binder
no binding	NFYQCIEALARTPAEKSRGQWVECRAP [Rm4-417]
no binding	NFYQCIEVFWGRPAEKSRGQWQECRTG [Rm4-410]
no binding	NFYQCIEMLASHPAEKSRGQWQECRTGG [Rm4-31]
no binding	NFYQCIEHLSGSPAEKSRGQWQECRTG [Rm4-44]
no binding	NFYQCIESLAGGPAEKSRGQWQECRTG [Rm4-45]
no binding	NFYQCIEALVGVPAEKSRGQWQECRTG [Rm4-46]
no binding	NFYQCIEALQSRPAEKSRGQWQECRTGG [Rm4-316]
no binding	NFYQCIEQLSSGPAEKSRGQWQECRTG [Rm4-411]
no binding	NFYQCIDLLMAYPAEKSRGQWQECRTGG [Rm4-39]
no binding	NFYQCIEMLSLPPAEKSRGQWQECRTG [Rm4-49]
no binding	NFYQCIELLSARPAEKSRGQWAECRAG [Rm4-415]
no binding	NFYQCIEALSRSPAEKSRGQWQECRTGG [Rm4-319]
no binding	NFYQCIEYLAMKPAEKSRGQWQECRTGG [Rm4-314]
no binding	NFYQCIEQLALRPAEKSRGQWQECRTGG [Rm4-33]
no binding	NFYQCIERLVTGPAEKSRGQWQECRTGG [Rm4-310]

target: T2, insulin-like growth factor-I receptor (IGF1R) (UniProt P08069 31-932, limits assumed); assay: ELISA, coated antigen, absorbance at 405 nm, one condition per construct, BSA-coated wells as control; the bar labelled Antigen is the antigen of the MRD of the construct, here IGF1R (RP)
T2 construct: also called immobilized IGF-1R

binding result	Binder
no binding	B1

target: T3, integrin αvβ3 (UniProt P06756 31-992; P05106 27-718, limits assumed); assay: ELISA, coated antigen, absorbance at 405 nm, one condition per construct, BSA-coated wells as control; the bar labelled Antigen is the antigen of the MRD of the construct, here integrin avb3
T3 construct: Antigen of the ELISAs
T3 sequence (P06756 31-992 limits assumed, chain 1 of 2): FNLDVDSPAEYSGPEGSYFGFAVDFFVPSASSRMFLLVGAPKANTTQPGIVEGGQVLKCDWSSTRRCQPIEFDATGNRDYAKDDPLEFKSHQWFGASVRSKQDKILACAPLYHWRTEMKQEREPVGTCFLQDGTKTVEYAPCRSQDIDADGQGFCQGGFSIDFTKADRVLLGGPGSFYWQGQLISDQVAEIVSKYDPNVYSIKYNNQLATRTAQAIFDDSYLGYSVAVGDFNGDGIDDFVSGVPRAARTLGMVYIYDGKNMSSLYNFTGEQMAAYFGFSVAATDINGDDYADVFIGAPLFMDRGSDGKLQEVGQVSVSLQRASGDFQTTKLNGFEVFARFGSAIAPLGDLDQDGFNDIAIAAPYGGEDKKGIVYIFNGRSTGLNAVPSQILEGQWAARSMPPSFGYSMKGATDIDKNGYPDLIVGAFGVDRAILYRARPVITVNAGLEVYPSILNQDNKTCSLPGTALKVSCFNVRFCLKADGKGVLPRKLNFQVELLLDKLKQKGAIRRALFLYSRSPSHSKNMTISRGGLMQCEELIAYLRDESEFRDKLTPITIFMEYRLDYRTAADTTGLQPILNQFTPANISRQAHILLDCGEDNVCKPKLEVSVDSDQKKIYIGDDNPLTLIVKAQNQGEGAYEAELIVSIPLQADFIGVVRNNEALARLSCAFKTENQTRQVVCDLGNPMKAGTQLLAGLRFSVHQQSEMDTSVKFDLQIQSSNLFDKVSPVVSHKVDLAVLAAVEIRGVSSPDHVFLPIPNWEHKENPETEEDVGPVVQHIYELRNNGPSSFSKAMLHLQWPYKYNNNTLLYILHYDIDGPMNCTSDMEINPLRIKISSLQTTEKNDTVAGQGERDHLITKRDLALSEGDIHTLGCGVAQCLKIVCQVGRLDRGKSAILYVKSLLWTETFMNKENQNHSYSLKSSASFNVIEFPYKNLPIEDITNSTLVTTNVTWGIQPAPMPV
T3 sequence (P05106 27-718 limits assumed, chain 2 of 2): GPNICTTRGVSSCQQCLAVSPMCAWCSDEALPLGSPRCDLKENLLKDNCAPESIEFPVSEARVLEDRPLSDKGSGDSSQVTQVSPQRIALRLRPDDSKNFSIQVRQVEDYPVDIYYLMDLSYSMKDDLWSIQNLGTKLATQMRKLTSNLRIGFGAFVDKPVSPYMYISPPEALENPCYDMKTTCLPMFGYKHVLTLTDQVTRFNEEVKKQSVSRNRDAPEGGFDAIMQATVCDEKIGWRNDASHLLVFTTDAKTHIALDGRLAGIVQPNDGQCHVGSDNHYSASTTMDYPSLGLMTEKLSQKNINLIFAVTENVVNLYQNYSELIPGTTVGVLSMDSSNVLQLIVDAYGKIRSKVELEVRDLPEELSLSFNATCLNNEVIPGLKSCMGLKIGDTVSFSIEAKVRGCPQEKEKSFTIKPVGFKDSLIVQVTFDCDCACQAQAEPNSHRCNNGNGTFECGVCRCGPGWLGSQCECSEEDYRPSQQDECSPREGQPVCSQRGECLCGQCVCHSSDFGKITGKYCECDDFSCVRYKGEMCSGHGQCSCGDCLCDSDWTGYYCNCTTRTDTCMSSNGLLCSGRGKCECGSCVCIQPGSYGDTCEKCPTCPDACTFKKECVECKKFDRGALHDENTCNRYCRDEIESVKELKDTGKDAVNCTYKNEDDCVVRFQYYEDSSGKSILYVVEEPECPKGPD

binding result	Binder
no binding	B2

target: T4, VEGF (human, UniProt P15692-4 27-191); assay: cell-based or functional assay
T4 sequence (P15692 other isoform, or with tags, fused parts or gaps limits assumed): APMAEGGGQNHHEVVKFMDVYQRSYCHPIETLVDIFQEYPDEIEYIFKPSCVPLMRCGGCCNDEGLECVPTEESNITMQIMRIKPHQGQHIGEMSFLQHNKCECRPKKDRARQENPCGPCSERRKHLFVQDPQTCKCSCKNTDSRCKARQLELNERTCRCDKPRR

inhibition of VEGF-induced proliferation of HUVEC, IC50	Binder
0.36 nM	B3

target: T1, angiopoietin-2 (Ang2); assay: ELISA on rhAng2-coated wells, MRD-MBP fusion, anti-MBP detection; EC50 by 4 parameter fit
Protocol: MBP fusion proteins were serially diluted in Blocking buffer and added to wells for 2 hours at RT. After washing (8×300 μl wash buffer), samples were treated with HRP-mouse anti MBP mAb (NEB, cat # E8038S), diluted 1:4000 in Blocking buffer. After incubation for 1 hour at RT, wells were washed (8×300 μl wash buffer) prior to receiving 100 μl of TMB substrate (KPL Laboratories). Color development was stopped with 100 μl of H₂SO₄, and absorbance was read at 450 nm.
Bound fusion proteins were detected with anti-MBP mAb. Assayed proteins represent mutational variants of the sequence […] […] (L17D) (SEQ ID NO:107). In this series, the motif MDD within L17D was mutated at the first D to all other possible amino acids (except cysteine). Other MRDs tested were “Lm32 KtoS” and a dimer of Lm32 (2×Lm32).

EC50	Binder
0.199 nM	{MBP}-PGSGGGSMGAQTNFMPMDNDELLLYEQFILQQGLE (other, not shown: small tags and cut ends, also: N-terminal MBP fusion, not in chain) [Lm32 KtoS-MBP fusion]

target: T5, rHER2-Fc (UniProt P04626 23-652); assay: ELISA, rHER2-Fc coated (20 ng/ml), sample diluted in 1.94 ug/ml biotinylated Ang2, detection with HRP anti-human kappa chain mAb, A450
T5 construct: Bought reagent; also called Her2 (ErbB2) Fc; ErbB2-Fc
Protocol: (§1) Ninety-six-well plates were coated overnight with rHER2-Fc (R&D cat#1129-ER-050) at 20 ng/ml (100W/well). […] After washing (8×300 μl wash buffer), parallel samples received either HRP-conjugated anti-human kappa chain mAb-(Abeam, cat # ab79115-1) diluted 1:1000 in Blocking buffer or HRP-conjugated streptavidin (Thermo Scientific cat#N100) diluted 1:4000 diluted in Blocking buffer. After incubation for 1 hour at RT, wells were washed (8×300 μl wash buffer) prior to receiving 100 μl of TMB substrate (KPL Laboratories). Color development was stopped with 100 μl of H₂SO₄, and absorbance was read at 450 nm.

binding result	Binder
no binding (tested: about 7 nM)	B3

target: T1, angiopoietin-2 (Ang2); assay: binding of MBP fusion to Ang2

EC50	Binder
0.182 nM	{MBP}-KSLSLSPGSGGGSMGAQTNFMPMDNDEALLYEQFILQQGLE (other, not shown: large carriers, also: N-terminal MBP fusion, not in chain) [MBP fusion of LM32 variant SEQ ID NO:90]
0.922 nM	{MBP}-KSLSLSPGSGGGSMGAQTNFMPMDNDEGLLYEEFILQQGLE (other, not shown: large carriers, also: N-terminal MBP fusion, not in chain) [MBP fusion of LM32 variant SEQ ID NO:96]
0.426 nM	{MBP}-KSLSLSPGSGGGSMGAQTNFMPMDNDEALLYEEFILQQGLE (other, not shown: large carriers, also: N-terminal MBP fusion, not in chain) [MBP fusion of LM32 variant SEQ ID NO:97]
0.392 nM	{MBP}-KSLSLSPGSGGGSMGAQTNFMPMDNDEALLYEQFIYQQGLE (other, not shown: large carriers, also: N-terminal MBP fusion, not in chain) [MBP fusion of LM32 variant SEQ ID NO:94]
0.902 nM	{MBP}-KSLSLSPGSGGGSMGAQTNFMPMDNDEGLLYEQFIYQQGLE (other, not shown: large carriers, also: N-terminal MBP fusion, not in chain) [MBP fusion of LM32 variant SEQ ID NO:93]
0.383 nM	{MBP}-KSLSLSPGSGGGSMGAQTNFMPMDQDELLLYEQFILQQGLE (other, not shown: large carriers, also: N-terminal MBP fusion, not in chain) [MBP fusion of LM32 variant SEQ ID NO:99]
1.42 nM	{MBP}-KSLSLSPGSGGGSMGAQTNFMPMDNDELTLYEQFILQQGLE (other, not shown: large carriers, also: N-terminal MBP fusion, not in chain) [MBP fusion of LM32 variant SEQ ID NO:91]
0.24 nM	{MBP}-KSLSLSPGSGGGSMGAQTNFMPMDDDELLLYEQFILQQGLE (other, not shown: large carriers, also: N-terminal MBP fusion, not in chain) [MBP fusion of LM32 variant SEQ ID NO:100]
1.08 nM	{MBP}-KSLSLSPGSGGGSMGAQTNFMPMDNDELLLYEQFI (other, not shown: large carriers, also: N-terminal MBP fusion, not in chain) [MBP fusion of LM32 variant SEQ ID NO:32]
20.7 nM	{MBP}-KSLSLSPGSGGGSMGAQTNFMPMDNEELLLYEQFI (other, not shown: large carriers, also: N-terminal MBP fusion, not in chain) [MBP fusion of LM32 variant SEQ ID NO:33]

target: T4, VEGF; assay: ELISA, human VEGF coated (30 ng/ml), sample diluted in 3.876 ug/ml biotinylated Ang2, detection with HRP anti-human kappa chain mAb, A450
Protocol: as §1, with “human VEGF (PeproTech, Inc. cat#100-20)” for “rHER2-Fc (R&D cat#1129-ER-050)”, “30” for “20”, “(100 μl/well).” for “(100W/well).”, “mAb (Abeam,” for “mAb-(Abeam,”, “ab79115)” for “ab79115-1)”

binding result	EC50 (read off the curve)	Binder
no binding (tested: about 20 nM)		B4
	~0.5 nM	B3

target: T4, VEGF; assay: sandwich ELISA, human VEGF coated (30 ng/ml), zybody varied in 3.876 ug/ml biotinylated Ang2, detection with HRP-streptavidin, A450
Protocol: as §1, with “human VEGF (PeproTech, Inc. cat#100-20)” for “rHER2-Fc (R&D cat#1129-ER-050)”, “30” for “20”, “(100 μl/well).” for “(100W/well).”, “mAb (Abeam,” for “mAb-(Abeam,”, “ab79115)” for “ab79115-1)”

EC50 (read off the curve)	Binder
~0.7 nM	B3
